From patent CN110974958A (BEIJING DONGFANG BIOTECH CO LTD, dated 2020)

Legend:
PD-L1 [1] = molecular target: T1, PD-L1 (UniProt Q9NZQ7 19-238, limits assumed); experiment: ELISA, PD-L1 coated 100 ng/well, full antibody titrated from 1 ug/ml, Anti-Human Fc-HRP
T1 construct: Coated antigen of experiments 1 and 3; also called 程序性死亡分子1配体; CD274

PD-L1-Fc = molecular target: T2, PD-L1-Fc (UniProt Q9NZQ7 19-238, limits assumed); experiment: competition ELISA, PD-L1-Fc coated 200 ng/well, competitor PD-1-His 5 ug/ml, anti-His-HRP
T2 construct: not shown: Fc part
T2 sequence (Q9NZQ7 19-238 limits assumed): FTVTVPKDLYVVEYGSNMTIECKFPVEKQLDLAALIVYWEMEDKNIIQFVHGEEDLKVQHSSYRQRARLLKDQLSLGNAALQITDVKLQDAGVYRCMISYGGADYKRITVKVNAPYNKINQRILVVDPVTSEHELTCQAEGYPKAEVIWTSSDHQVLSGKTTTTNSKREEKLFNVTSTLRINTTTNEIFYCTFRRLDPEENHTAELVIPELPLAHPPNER

PD-L1 [2] = molecular target: T1, PD-L1; experiment: cell-based or functional assay

T1 sequence (Q9NZQ7 19-238 limits assumed): as above

Row | EC50 (PD-L1 [1]) [ng/mL] | IC50 (PD-L1-Fc) [ng/mL] | EC50(ng/ml), 混合淋巴细胞反应(MLR), CD4+ T细胞增殖 (cck8) (PD-L1 [2]) [ng/mL] | Binder
1 | 1.91 | 136 | 11.4 | AH10-E3 全抗体 (full antibody, human IgG1/kappa) (antibody, V domains shown, Full antibody expressed in HEK293E from vector pTSE) VH: EVQLVESGGGLVQPGGSLRLSCAASGWTLSDSLQHWVRQAPGKGLEWVGFQSAYGGSTYYADSVKGRFTISADTSKNTAYLQMNSLRAEDTAVYYCARRHYYTAWDYWGQGTLVTVSS VL: DIQMTQSPSSLSASVGDRVTITCRASQSIHNYLAWYQQKPGKAPKLLIYSASNLPSGVPSRFSGSGSGTDFTLTISSLQPEDFATYYCQQGLHTPPTFGQGTKVEIKR
2 | 1.23 | 92.7 | 7.71 | BH2-E3 全抗体 (full antibody, human IgG1/kappa) (antibody, V domains shown, Full antibody expressed in HEK293E from vector pTSE) VH: EVQLVESGGGLVQPGGSLRLSCAASGLTWSDSYKHWVRQAPGKGLEWVHWNSTYGGSTYYADSVKGRFTISADTSKNTAYLQMNSLRAEDTAVYYCARRHFASTWDYWGQGTLVTVSS VL: DIQMTQSPSSLSASVGDRVTITCRASQSIHNYLAWYQQKPGKAPKLLIYSASNLPSGVPSRFSGSGSGTDFTLTISSLQPEDFATYYCQQGLHTPPTFGQGTKVEIKR

More lines, now with the values behind:

Row | Binder | EC50 (PD-L1 [1]) [ng/mL] | IC50 (PD-L1-Fc) [ng/mL] | EC50(ng/ml), 混合淋巴细胞反应(MLR), CD4+ T细胞增殖 (cck8) (PD-L1 [2]) [ng/mL]
3 | BH2-B11 全抗体 (full antibody, human IgG1/kappa) (antibody, V domains shown, Full antibody expressed in HEK293E from vector pTSE) VH: EVQLVESGGGLVQPGGSLRLSCAASGLTWSDSYKHWVRQAPGKGLEWVHWNSTYGGSTYYADSVKGRFTISADTSKNTAYLQMNSLRAEDTAVYYCARRHFASTWDYWGQGTLVTVSS VL: DIQMTQSPSSLSASVGDRVTITCRASQNIHNSLAWYQQKPGKAPKLLIYGASSLESGVPSRFSGSGSGTDFTLTISSLQPEDFATYYCQQERRVPWTFGQGTKVEIKR | 0.535 | 61.2 | 6.73
4 | AC9-E3 全抗体 (full antibody, human IgG1/kappa) (antibody, V domains shown, Full antibody expressed in HEK293E from vector pTSE) VH: EVQLVESGGGLVQPGGSLRLSCAASGCTWSDSWDHWVRQAPGKGLEWVDYESTYGGSTYYADSVKGRFTISADTSKNTAYLQMNSLRAEDTAVYYCARRHWNATFDYWGQGTLVTVSS VL: DIQMTQSPSSLSASVGDRVTITCRASQSIHNYLAWYQQKPGKAPKLLIYSASNLPSGVPSRFSGSGSGTDFTLTISSLQPEDFATYYCQQGLHTPPTFGQGTKVEIKR | 2.17 | 138 | 11.9
5 | AC9-B11 全抗体 (full antibody, human IgG1/kappa) (antibody, V domains shown, Full antibody expressed in HEK293E from vector pTSE) VH: EVQLVESGGGLVQPGGSLRLSCAASGCTWSDSWDHWVRQAPGKGLEWVDYESTYGGSTYYADSVKGRFTISADTSKNTAYLQMNSLRAEDTAVYYCARRHWNATFDYWGQGTLVTVSS VL: DIQMTQSPSSLSASVGDRVTITCRASQNIHNSLAWYQQKPGKAPKLLIYGASSLESGVPSRFSGSGSGTDFTLTISSLQPEDFATYYCQQERRVPWTFGQGTKVEIKR | 0.574 | 82 | 7.58
6 | AH10-B11 全抗体 (full antibody, human IgG1/kappa) (antibody, V domains shown, Full antibody expressed in HEK293E from vector pTSE; also called AH10-811) VH: EVQLVESGGGLVQPGGSLRLSCAASGWTLSDSLQHWVRQAPGKGLEWVGFQSAYGGSTYYADSVKGRFTISADTSKNTAYLQMNSLRAEDTAVYYCARRHYYTAWDYWGQGTLVTVSS VL: DIQMTQSPSSLSASVGDRVTITCRASQNIHNSLAWYQQKPGKAPKLLIYGASSLESGVPSRFSGSGSGTDFTLTISSLQPEDFATYYCQQERRVPWTFGQGTKVEIKR | 1.43 | 108 | 9.88
